Among the data in patent US20120316071A1 are ECL signal values, retold here.

Test [1] addresses rHuman EGF R/Fc Chimera, CF (R&D Systems Cat#344-ER) (human) (UniProt P00533). As to the kind of experiment: Multispot ECL (MSD) titration; antigen spotted on plate; Fab 98.1 nM; blank spot 210.
Test [2] shares this target. As to the kind of experiment: Multispot ECL (MSD) titration; antigen spotted on plate; Fab 1570 nM; blank spot 866.
The target is the same in test [3]. Description: Multispot ECL (MSD) titration; antigen spotted on plate; Fab 392.5 nM; blank spot 338.
For test [4] the target is unchanged. As to the kind of experiment: Multispot ECL (MSD) titration; antigen spotted on plate; Fab […]; blank spot 149.

B1: Fab VH1-46_IGHD3-10*01_IGHJ4*01 & O1_IGKJ1*01 (Fab, V domains shown)
VH: QVQLVQSGAEVKKPGASVKVSCKASGYTFTSYYMHWVRQAPGQGLEWMGIINPSGGSTSYAQKFQGRVTMTRDTSTSTVYMELSSLRSEDTAVYYCAREYYYGSGSYYNDYFDYWGQGTLVTVSS
VL: DIVMTQTPLSLPVTPGEPASISCRSSQSLLDSDDGNTYLDWYLQKPGQSPQLLIYTLSYRASGVPDRFSGSGSGTDFTLKISRVEAEDVGVYYCMQRIEFPSWTFGQGTKVEIKR
As to B1, the ECL signal was 4390 in test [1], 2480 in test [2], 744 in test [3] and 317 in test [4].
